Assay results from PMC11016754, “Allosteric Probe-Based Colorimetric Assay for Direct Identification and Sensitive Analysis of Methicillin Resistance of Staphylococcus aureus”.

Biological target: T1, PBP2a (penicillin binding protein 2a) (Staphylococcus aureus …, UniProt Q53707 25-668)
T1 sequence: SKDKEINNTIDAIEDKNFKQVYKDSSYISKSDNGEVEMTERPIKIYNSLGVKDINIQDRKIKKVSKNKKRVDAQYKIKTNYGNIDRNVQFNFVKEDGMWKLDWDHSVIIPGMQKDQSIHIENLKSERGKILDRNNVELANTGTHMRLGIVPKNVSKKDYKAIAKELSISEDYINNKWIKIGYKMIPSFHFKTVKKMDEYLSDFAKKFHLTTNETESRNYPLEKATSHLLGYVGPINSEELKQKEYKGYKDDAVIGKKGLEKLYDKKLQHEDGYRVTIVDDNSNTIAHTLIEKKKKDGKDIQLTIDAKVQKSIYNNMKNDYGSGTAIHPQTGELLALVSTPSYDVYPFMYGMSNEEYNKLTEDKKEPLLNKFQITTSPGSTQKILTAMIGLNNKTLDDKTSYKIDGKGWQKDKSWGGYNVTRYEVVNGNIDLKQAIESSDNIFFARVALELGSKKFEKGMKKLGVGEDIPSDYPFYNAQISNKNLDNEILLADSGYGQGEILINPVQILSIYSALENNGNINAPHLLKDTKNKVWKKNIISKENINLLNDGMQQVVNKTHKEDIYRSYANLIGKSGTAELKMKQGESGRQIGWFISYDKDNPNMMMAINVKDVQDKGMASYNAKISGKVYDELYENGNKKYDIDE
Assay: fluorescence dequenching (FAM/BHQ hairpin opening); Binding-assay buffer not stated; amplification assay in PBS, room temperature, 60 min, 100 nM H1
Settings: label: FAM and BHQ at the two termini

B1: H1 probe (allosteric hairpin with PBP2a aptamer section d) (structured_DNA)
DNA: CACCCCACCTCGCTCCCGTGACACTAATGCTATTTTTTTTTATTTCTTTATCCTCAGCTTAGTGTCACTAAGC
binding result: binds
